Source: publication PMC7610691 (Nature structural & molecular biology, 2020)

What was measured:
[1] = molecular target: T1, Ycg1 (S. cerevisiae condensin HEAT-repeat subunit) (S. cerevisiae, UniProt Q06680 1-1035); assay: cryo-EM structure
T1 sequence: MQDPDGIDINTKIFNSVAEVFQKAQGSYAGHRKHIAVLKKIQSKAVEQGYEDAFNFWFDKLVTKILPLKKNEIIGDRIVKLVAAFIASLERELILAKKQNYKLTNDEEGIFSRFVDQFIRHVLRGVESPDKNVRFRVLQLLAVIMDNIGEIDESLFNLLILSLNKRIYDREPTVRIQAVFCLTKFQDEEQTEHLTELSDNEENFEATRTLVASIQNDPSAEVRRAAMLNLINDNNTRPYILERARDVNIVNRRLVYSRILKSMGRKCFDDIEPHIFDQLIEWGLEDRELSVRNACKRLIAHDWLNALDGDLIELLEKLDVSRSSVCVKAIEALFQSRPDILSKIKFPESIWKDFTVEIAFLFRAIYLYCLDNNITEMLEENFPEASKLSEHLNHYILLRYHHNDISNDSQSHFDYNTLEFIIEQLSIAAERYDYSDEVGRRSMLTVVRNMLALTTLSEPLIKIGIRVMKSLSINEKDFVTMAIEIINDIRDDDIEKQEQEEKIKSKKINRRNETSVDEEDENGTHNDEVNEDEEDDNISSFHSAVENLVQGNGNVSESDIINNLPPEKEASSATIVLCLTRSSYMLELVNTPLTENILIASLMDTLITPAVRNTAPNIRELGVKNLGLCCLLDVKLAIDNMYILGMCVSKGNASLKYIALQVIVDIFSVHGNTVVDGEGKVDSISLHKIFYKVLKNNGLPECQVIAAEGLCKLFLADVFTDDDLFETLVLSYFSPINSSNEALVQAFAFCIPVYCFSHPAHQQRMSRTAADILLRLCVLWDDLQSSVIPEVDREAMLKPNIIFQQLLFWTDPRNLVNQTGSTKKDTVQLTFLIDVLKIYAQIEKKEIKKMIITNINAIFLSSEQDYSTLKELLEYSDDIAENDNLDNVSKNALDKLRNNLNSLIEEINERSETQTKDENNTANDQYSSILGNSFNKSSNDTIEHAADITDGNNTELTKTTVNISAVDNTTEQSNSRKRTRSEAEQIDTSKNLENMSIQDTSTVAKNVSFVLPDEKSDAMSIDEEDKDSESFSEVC

[2] = molecular target: T2, Ycs4 (S. cerevisiae condensin HEAT-repeat subunit) (S. cerevisiae, UniProt Q06156 1-1176); assay: cryo-EM structure
T2 sequence: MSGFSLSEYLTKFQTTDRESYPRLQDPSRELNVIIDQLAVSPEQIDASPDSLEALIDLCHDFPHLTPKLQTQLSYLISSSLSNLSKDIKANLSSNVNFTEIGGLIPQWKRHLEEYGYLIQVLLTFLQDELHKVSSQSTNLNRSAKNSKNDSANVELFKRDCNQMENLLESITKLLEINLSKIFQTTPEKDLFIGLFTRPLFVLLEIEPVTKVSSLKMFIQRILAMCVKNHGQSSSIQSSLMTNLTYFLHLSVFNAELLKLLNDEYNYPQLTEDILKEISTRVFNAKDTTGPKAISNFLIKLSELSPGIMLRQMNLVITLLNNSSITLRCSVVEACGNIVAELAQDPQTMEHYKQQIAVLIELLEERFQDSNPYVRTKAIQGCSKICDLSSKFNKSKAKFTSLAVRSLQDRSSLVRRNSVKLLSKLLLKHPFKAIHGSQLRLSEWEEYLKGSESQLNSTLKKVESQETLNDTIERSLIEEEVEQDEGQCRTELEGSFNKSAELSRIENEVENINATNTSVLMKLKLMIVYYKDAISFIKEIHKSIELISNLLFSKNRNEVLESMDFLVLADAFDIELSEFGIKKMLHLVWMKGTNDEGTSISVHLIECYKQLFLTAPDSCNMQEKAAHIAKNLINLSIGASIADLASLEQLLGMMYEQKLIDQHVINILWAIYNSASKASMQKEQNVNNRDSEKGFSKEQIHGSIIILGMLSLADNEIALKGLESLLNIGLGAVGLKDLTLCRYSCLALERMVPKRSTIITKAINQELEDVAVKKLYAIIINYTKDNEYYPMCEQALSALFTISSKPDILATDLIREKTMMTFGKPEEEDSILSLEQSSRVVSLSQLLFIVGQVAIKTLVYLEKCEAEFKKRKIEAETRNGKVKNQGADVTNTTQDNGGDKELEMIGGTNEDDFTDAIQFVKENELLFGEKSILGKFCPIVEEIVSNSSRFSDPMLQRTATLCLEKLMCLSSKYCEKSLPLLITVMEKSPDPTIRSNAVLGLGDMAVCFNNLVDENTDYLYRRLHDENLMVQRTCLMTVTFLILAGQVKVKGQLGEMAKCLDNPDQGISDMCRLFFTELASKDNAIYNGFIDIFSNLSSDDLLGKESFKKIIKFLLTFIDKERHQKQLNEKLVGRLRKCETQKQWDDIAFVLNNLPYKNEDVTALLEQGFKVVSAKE

binding result [1]: binds
binding result [2]: binds
B1: Brn1 (S. cerevisiae condensin kleisin subunit) (natural protein)
chain: MTTQLRYENNDDDERVEYNLFTNRSTMMANFEEWIKMATDNKINSRNSWNFALIDYFYDLDVLKDGENNINFQKASATLDGCIKIYSSRVDSVTTETGKLLSGLAQRKTNGASNGDDSNGGNGEGLGGDSDEANIEIDPLTGMPISNDPDVNNTRRRVYNRVLETTLVEFETIKMKELDQELIIDPLFKKALVDFDEGGAKSLLLNTLNIDNTARVIFDASIKDTQNVGQGKLQRKEEELIERDSLVDDENEPSQSLISTRNDSTVNDSVISAPSMEDEILSLGMDFIKFDQIAVCEISGSIEQLRNVVEDINQAKDFIENVNNRFDNFLTEEELQAAVPDNAEDDSDGFDMGMQQELCYPDENHDNTSHDEQDDDNVNSTTGSIFEKDLMAYFDENLNRNWRGREHWKVRNFKKANLVNKESDLLEETRTTIGDTTDKNTTDDKSMDTKKKHKQKKVLEIDFFKTDDSFEDKVFASKGRTKIDMPIKNRKNDTHYLLPDDFHFSTDRITRLFIKPGQKMSLFSHRKHTRGDVSSGLFEKSTVSANHSNNDIPTIADEHFWADNYERKEQEEKEKEQSKEVGDVVGGALDNPFEDDMDGVDFNQAFEGTDDNEEASVKLDLQDDEDHKFPIRENKVTYSRVSKKVDVRRLKKNVWRSINNLIQEHDSRKNREQSSNDSETHTEDESTKELKFSDIIQGISKMYSDDTLKDISTSFCFICLLHLANEHGLQITHTENYNDLIVNYEDLATTQAAS
